The supplement of paper PMC9876800

Test system: peptide library, one residue held at a place counted from the S/T acceptor
Test: relative phosphorylation of the sub-library (ratio to the mean residue at this position); higher = residue favoured
Details: human
How it was run: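 Relative sub-library phosphorylation is a ratio to the mean residue at the same position. Purified recombinant kinases were incubated under kinase-specific conditions with biotinylated degenerate peptide sub-libraries, each fixing one residue at one position around a central Ser/Thr, using 50 μM peptide and 50 μM ATP spiked with γ-32P-ATP for 90 min. Spots captured on streptavidin membranes were phosphorimaged and quantified by densitometry.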

BUB1, construct: Full length, sequence (O43683 whole entry, looked up): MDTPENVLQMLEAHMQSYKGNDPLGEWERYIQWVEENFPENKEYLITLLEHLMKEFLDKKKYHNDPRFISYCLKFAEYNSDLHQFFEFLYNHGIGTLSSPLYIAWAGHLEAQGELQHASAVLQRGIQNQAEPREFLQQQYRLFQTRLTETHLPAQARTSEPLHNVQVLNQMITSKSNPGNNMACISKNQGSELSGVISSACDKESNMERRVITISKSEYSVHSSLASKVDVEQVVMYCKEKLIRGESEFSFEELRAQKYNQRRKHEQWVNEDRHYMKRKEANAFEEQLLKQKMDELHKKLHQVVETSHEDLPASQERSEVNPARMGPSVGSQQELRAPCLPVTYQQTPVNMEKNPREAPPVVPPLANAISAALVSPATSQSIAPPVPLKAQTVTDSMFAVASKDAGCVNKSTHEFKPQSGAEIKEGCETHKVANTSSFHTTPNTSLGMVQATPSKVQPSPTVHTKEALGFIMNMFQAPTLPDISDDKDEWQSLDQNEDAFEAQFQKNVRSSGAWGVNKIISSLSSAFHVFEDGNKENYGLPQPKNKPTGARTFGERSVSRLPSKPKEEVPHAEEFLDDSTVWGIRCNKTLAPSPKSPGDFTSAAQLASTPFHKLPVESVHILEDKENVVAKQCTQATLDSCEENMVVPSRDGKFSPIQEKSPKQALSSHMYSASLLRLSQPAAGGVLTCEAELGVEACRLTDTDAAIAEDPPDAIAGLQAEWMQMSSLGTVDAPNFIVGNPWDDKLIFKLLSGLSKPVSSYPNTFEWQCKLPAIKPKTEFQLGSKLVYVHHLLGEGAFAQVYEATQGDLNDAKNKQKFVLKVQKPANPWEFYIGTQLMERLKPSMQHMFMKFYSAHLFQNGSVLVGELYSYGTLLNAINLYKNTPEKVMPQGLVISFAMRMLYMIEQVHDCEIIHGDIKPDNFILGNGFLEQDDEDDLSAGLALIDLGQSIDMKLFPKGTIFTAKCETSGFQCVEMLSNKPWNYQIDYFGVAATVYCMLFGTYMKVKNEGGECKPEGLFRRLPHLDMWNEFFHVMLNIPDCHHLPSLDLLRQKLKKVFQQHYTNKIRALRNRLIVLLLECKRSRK

BUB1, construct: Full length (from UniProt O43683)
relative phosphorylation
Details	at +1	at +2	at +3	at +4	at -1	at -2	at -3	at -4	at -5
A fixed	0.963	0.738	0.95	0.855	0.796	0.718	1.66	1.24	0.423
D fixed	0.375	0.267	0.416	0.455	0.321	0.411	0.232	0.61	0.245
E fixed	0.325	0.331	0.379	0.424	0.289	0.284	0.347	0.865	0.246
F fixed	0.541	1.13	0.784	0.78	0.855	0.411	0.389	0.739	0.486
G fixed	1.34	1.09	1.09	1.31	0.502	0.418	0.918	1.06	0.377
H fixed	0.807	1.22	0.969	1.04	0.902	0.597	0.591	0.882	0.393
I fixed	0.594	0.761	0.565	1	0.551	1.8	0.839	0.556	1.12
K fixed	3.21	2.02	1.22	1.93	2.21	3.31	1.2	1.66	0.472
L fixed	0.552	0.851	0.543	0.849	1.43	1.13	0.526	1.16	4.97
M fixed	0.759	0.986	0.777	0.96	1.32	0.851	0.656	1.13	1.3
N fixed	0.662	0.583	0.711	1.07	0.566	0.584	0.616	0.558	0.388
P fixed	0.367	2.16	4.04	0.962	1.33	0.721	3.77	1.5	1.53
Q fixed	0.972	0.747	0.767	1.01	0.77	0.868	1.24	1.07	0.905
R fixed	3.99	2.14	1.41	1.8	2.76	2.32	2.38	1.64	1.31
V fixed	0.611	0.777	0.631	0.78	0.435	1.65	0.791	0.676	0.543
W fixed	0.497	0.491	0.936	0.949	0.705	0.485	0.442	0.829	0.412
Y fixed	0.442	0.713	0.813	0.824	1.26	0.452	0.405	0.827	1.87
pThr fixed	0.373	0.328	0.586	0.443	0.199	0.249	0.375	0.475	0.408
pTyr fixed	0.252	0.29	0.697	0.463	0.315	0.281	0.256	0.414	0.993
